# From publication PMC11946513, “Modulation of the substrate preference of a MYST acetyltransferase by a scaffold protein” (The Journal of Biological Chemistry, 2025)
# Tests used:
# [1] = molecular target: KAT6A MYST domain (KAT6A 501-784) (human) (UniProt Q92794)
# [2] = molecular target: full-length KAT6A (KAT6A^FL) (human) (UniProt Q92794)
# [3] = molecular target: KAT6A^FL 4-protein complex (KAT6A^FL 4-plex) (UniProt Q92794)
# [4] = molecular target: KAT6A^FL-BRPF1 2-protein complex (KAT6A^FL 2-plex) (human) (UniProt Q92794)
# Chain of KAT6A^FL-BRPF1 2-protein complex (KAT6A^FL 2-plex) (human) (Q92794 whole entry, chain 1 of 2): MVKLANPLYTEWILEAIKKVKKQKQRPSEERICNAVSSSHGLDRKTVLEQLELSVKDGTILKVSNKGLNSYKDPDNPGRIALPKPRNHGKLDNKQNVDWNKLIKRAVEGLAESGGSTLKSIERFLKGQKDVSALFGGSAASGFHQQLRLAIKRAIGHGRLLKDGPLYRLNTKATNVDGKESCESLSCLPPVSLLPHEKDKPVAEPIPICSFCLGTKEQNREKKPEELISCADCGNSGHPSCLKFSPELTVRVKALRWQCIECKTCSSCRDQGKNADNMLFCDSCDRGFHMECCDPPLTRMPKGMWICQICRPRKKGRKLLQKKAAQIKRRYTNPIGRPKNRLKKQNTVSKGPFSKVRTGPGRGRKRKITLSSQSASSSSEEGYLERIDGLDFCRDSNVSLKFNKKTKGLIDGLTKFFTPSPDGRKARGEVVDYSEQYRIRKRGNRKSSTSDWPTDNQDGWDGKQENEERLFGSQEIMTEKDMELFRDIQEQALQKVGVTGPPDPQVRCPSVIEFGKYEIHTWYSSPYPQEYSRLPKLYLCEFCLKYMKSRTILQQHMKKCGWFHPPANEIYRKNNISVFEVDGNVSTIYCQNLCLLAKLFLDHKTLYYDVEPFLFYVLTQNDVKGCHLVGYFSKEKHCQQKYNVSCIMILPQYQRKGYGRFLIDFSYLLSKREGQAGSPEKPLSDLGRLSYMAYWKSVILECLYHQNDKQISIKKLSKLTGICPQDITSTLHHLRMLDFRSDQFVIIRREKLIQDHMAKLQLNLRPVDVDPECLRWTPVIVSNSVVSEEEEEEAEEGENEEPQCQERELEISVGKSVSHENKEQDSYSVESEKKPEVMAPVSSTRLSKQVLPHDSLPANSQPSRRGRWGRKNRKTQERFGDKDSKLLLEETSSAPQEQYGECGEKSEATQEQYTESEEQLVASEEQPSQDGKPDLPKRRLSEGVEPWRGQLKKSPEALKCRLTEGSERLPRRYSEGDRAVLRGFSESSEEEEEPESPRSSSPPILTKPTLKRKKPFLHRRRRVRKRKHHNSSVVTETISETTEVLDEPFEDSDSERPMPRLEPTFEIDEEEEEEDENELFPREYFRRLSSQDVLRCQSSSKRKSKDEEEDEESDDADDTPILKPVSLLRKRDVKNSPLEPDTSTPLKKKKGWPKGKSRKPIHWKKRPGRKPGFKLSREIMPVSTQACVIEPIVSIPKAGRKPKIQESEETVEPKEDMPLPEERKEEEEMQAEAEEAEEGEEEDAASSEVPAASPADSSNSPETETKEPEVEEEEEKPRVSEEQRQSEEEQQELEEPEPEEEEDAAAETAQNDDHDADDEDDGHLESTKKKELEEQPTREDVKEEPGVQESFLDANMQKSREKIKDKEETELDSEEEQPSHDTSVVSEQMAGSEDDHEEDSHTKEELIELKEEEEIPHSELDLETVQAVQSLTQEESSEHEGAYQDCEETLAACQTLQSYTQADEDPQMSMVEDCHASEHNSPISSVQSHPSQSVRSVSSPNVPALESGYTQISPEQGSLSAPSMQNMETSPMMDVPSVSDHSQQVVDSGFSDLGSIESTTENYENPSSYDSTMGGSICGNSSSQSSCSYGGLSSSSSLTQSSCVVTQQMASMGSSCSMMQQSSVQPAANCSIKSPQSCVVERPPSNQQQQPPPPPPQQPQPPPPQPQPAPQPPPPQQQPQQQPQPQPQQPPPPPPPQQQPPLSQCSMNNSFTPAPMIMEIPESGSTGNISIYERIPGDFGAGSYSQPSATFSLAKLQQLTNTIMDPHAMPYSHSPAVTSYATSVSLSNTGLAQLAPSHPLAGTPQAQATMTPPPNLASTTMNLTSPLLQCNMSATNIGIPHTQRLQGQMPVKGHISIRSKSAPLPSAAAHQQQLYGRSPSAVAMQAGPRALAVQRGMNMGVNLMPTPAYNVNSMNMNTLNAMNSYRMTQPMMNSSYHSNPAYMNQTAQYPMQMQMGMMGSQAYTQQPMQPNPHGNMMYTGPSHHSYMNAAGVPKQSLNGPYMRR
# Chain of KAT6A^FL-BRPF1 2-protein complex (KAT6A^FL 2-plex) (human) (P55201 whole entry, chain 2 of 2, further chain): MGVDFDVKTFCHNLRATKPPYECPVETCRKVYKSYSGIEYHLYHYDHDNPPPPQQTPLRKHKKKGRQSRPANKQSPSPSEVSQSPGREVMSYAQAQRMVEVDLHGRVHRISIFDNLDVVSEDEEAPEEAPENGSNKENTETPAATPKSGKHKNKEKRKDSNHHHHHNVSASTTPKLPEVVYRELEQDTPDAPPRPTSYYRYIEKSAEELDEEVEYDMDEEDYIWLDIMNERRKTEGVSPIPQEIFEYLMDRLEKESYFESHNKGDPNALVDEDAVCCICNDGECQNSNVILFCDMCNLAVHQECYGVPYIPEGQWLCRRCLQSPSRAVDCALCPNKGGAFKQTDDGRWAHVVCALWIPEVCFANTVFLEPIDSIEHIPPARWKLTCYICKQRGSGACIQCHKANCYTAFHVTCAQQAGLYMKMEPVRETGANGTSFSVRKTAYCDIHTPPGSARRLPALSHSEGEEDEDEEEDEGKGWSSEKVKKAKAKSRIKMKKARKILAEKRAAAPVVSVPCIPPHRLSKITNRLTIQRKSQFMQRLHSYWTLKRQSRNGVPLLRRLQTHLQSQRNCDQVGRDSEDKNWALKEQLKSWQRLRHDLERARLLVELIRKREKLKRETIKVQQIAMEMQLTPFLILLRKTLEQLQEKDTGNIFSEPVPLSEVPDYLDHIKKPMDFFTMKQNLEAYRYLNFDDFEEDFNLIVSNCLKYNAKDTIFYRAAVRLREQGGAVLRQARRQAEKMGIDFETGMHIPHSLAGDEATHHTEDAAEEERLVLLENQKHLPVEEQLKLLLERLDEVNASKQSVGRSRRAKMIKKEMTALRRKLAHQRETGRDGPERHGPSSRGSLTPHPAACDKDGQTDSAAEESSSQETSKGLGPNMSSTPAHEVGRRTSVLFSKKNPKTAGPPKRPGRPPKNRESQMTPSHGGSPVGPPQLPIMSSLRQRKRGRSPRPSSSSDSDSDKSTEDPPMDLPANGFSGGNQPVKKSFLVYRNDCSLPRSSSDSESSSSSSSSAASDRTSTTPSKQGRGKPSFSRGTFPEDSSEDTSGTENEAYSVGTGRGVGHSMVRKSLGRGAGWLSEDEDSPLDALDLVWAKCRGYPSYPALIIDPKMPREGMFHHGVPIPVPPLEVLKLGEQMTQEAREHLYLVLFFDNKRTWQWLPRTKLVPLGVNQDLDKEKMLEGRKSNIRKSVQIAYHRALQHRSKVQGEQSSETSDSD
# Chain of full-length KAT6A (KAT6A^FL) (human) (Q92794 whole entry): as the sequence (Q92794 whole entry, chain 1 of 2) above
# Chain of KAT6A MYST domain (KAT6A 501-784) (human) (Q92794 501-784): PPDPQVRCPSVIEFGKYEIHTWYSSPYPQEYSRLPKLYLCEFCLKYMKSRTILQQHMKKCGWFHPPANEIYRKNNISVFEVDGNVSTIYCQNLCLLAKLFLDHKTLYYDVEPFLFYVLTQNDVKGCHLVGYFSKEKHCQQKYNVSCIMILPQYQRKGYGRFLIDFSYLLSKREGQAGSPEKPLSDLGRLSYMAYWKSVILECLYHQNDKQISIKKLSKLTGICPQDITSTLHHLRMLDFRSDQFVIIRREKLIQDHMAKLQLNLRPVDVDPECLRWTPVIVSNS
# Chain of KAT6A^FL 4-protein complex (KAT6A^FL 4-plex) (Q92794 whole entry, looked up, one chain of several): as the sequence (Q92794 whole entry, chain 1 of 2) above
"KM of steady-state acetylation of the peptide (CoA formation by MS; 20 μM AcCoA, 25 °C) [1]","KM of steady-state acetylation of the peptide (CoA formation by MS; 20 μM AcCoA, 25 °C) [2]","KM of steady-state acetylation of the peptide (CoA formation by MS; 20 μM AcCoA, 25 °C) [3]","KM of steady-state acetylation of the peptide (CoA formation by MS; 20 μM AcCoA, 25 °C) [4]",Substance
130 µM,3.2 µM,,,H3.3 (1-43) (peptide)
380 µM,16 µM,,,H3 (1-21) (peptide)
360 µM,30 µM,16 µM,13 µM,H3.3 (15-36) (peptide)
